Measured values: patent US8927207B2, “miRNAs as therapeutic targets in cancer” (Research Foundation of State University of New York, priority 2008, dated 2015)

Assays:
HCT-116 (wt-p53) cells = experiment: WST-1 cell proliferation with MTX treatment after transfection; type: cell-based, human; details: 72 hours
Experimental: HCT-116 (wt-p53) cells were plated in 96-well plates at 1×10^3 cells/well in triplicate. They were transfected with miR-192 precursor (FIG. 3, lane 4), non-specific control miRNA (FIG. 3, lane 2), or siRNA against DHFR (FIG. 3, lane 3) in 100 μl of medium. […] Ten microliters of WST-1 (Roche Applied Science) was added to each well. After 2 hours of incubation, absorbance was measured at 450 and 630 nm respectively (n=3).

DHFR protein = experiment: Western immunoblot of DHFR protein after transfection; type: cell-based, human; details: HCT-116 (wt-p53)
Experimental: In this experiment, human colon cancer cell lines, HCT-116 (wt-p53), cells were transfected with miR-192 or miR-24. The cells were maintained in McCoy's 5A medium (Life Technologies). The media was supplemented with 10% dialyzed fetal bovine serum (Hyclone Laboratories). The cell line were grown at 37° C. in a humidified incubator with 5% CO2.
The HCT-116 (wt-p53) cells tranfected as follows. The cells (2×10^5) were plated in 6-well plates and transfected with 100 nmol/L of either miR-192 or miR-24 precursors or nonspecific control miR (Ambion) after 24 h with Oligofectamine (Invitrogen) according to the manufacturer's instructions.
At 48 hours after transfection with miR-192 or miR-24 precursors or nonspecific control miRNA, the cells were scraped and lysed in radioimmunoprecipitation assay buffer (Sigma). […] Horseradish peroxidase-conjugated antibodies against mouse or rabbit (1:1,000; Santa Cruz Biotechnology) were used as the secondary antibodies.

DHFR mRNA [1] = experiment: real time qRT-PCR of DHFR mRNA; type: cell-based; details: U-2 OS cells
Experimental: (§2) Expression levels of TS or DHFR mRNA were analyzed using real time qRT-PCR analysis (FIG. 15).

DHFR mRNA [2] = experiment: real time qRT-PCR of DHFR mRNA after transfection; type: cell-based, human; details: HCT-116 (wt-p53), 24 h after transfection, GAPDH normalized
Experimental: The analysis was performed as follows. Total RNA, including miRNA, was isolated from cell lines by using TRIzol reagent (Invitrogen) according to the manufacturer's instructions at 24 h after transfection. cDNA was synthesized with the High Capacity cDNA synthesis kit (Applied Biosystems) using 2 μg of total RNA as the template and random primers. Real-time qRT-PCR analysis was done on the experimental mRNAs. The PCR primers and probes for DHFR, and the internal control gene GAPDH were purchased from Applied Biosystems. qRT-PCR was done on an ABI 7500HT instrument under the following conditions: 50° C., 2 min of reverse transcription; 95° C., 10 min; 95° C., 15 sec; 60° C., 1 min. The reaction was done for up to 40 cycles (n=3). GAPDH was used as an internal standard for normalization.

TS mRNA = experiment: real time qRT-PCR of TS mRNA; type: cell-based; details: U-2 OS cells
Experimental: as §2

p53 [3] = experiment: western immunoblot of p53 in HCT-116 (wt-p53) and U-2 OS cells; type: cell-based; details: both HCT-116 (wt-p53) and U-2 OS cells, 48 h after transfection
Description: miR-215 increases the expression of cell cycle control genes p53 and p21. p53 and p21, a downstream target of the p53 pathway of growth control, are reported to block cells at G2 checkpoint mainly through inhibiting activity of Cdc2, the cyclin-dependent kinase that normally drives cells into mitosis, which is the ultimate target of pathways that mediate rapid arrest in G2 in response to DNA damage. To further analyze the mechanism of cell proliferation inhibition by miR-215, we transfected miR-215 precursor into HCT-116 (wt-p53) and U-2 OS cells, and evaluated the levels of cell cycle control genes p53 and p21 by western immunoblot analysis.

Bax = experiment: Western immunoblot of cell cycle control genes, HCT-116 (wt-p53); type: cell-based, human; details: 48 hours after transfection
Experimental: (§1) miR-192 expression is dependent on p53. To further analyze the cell cycle control genes involved in miR-192 overexpression, a number of cell cycle control genes were analyzed (p53, p21, Bax, E2F3, Rb). HCT-116 (wt-p53) cells (FIG. 6A) and RKO (wt-p53) cells (FIG. 6B), as described above (see Example 3), were transfected with non-specific miR (FIG. 6A, lane 2; and FIG. 6B, lane 1), DHFR siRNA (FIG. 6A, lane 3; and FIG. 6B, lane 2) and miR-192 (FIG. 6A, lane 4; and FIG. 6B, lane 3) according to the procedure discussed above (see Examples 1 and 2). Non-transfected HCT-116 (wt-p53) was used as a negative control (FIG. 6A, lane 1). Alpha-tubulin was used as a protein loading control.

p53 [4] = experiment: as above; type: cell-based, human; details: 48 hours after transfection
Experimental: as §1

p21 = experiment: as above; type: cell-based, human; details: 48 hours after transfection
Experimental: as §1

TS = experiment: western immunoblot of TS protein after transfection; type: cell-based; details: 48 hours after transfection
Experimental: At 48 h after transfection with miR-215, miR-192 precursors or non-specific control miRNA, the cells were scraped and lysed in RIPA buffer (Sigma). Equal amounts of proteins were resolved by SDS-PAGE on 12% gels by the method of Laemmli, and transferred to polyvinylidene fluoride membranes (BIO-RAD Laboratories). The membranes were then blocked by 5% nonfat milk in TBS-T (Tris-buffered saline and 0.5% Tween-20) at room temperature for 1 h. The primary antibodies used for the analysis included mouse anti-TS mAb (1:400, Millipore), mouse anti-DHFR mAb (1:250, BD Bioscience), mouse anti-p53 mAb (1:1000, DO-1), mouse anti-p21 mAb (1:1000, F-5), and mouse anti-α-tubulin mAb (1:1000, TU-02) purchased from Santa Cruz Biotechnology. Horseradish peroxidase—conjugated antibodies against mouse (1:1000, Santa Cruz Biotechnology) were used as the secondary antibodies. Protein bands were visualized with a chemiluminescence detection system using the Super Signal substrate (BIO-RAD).
At 48 hours after transfection, proteins were extracted from miR-215-transfected cells and from control cells and changes in TS or DHFR protein levels were determined by western immunoblot analysis (FIG. 14).

B1: miR-192: microRNA miR-192 (SEQ ID NO:1), transfected into cells as miR-192 precursor (Ambion) (nucleic acid)
chain: GCCGAGACCGAGUGCACAGGGCUCUGACCUAUGAAUUGACAGCCAGUGCUCUCGUCUCCCCUCUGGCUGCCAAUUCCAUAGGUCACAGGUAUGUUCGCCUCAAUGCCAGC
modifications: delivered as precursor, further chemistry not given here
For B1, the “effect in combination with MTX” value (HCT-116 (wt-p53) cells; MTX 25 nM) was “synergistic effect”, the cell proliferation reduced (HCT-116 (wt-p53) cells; transfected cells in combination with MTX 25 nM) was about 70% and the “expression of DHFR protein” value (DHFR protein; 100 nmol/L precursor, 48 hours after transfection) was “clearly decreased”. The “potency for decreasing DHFR expression” value (DHFR protein; compared with positive control miR-24) was “comparable to miR-24”, the “DHFR mRNA expression” value (DHFR mRNA [1]) was “no reduction” and the “DHFR mRNA expression” value (DHFR mRNA [2]) was “no reduction”. The “TS mRNA expression” value (TS mRNA) was “no reduction”, the p53 protein level (p53 [3]) was “significant increase” and the “expression of Bax” value (Bax) was “not altered”. The “increase in expression of the p53 protein” value (p53 [4]) was “over 10 fold”, the “increase in expression of p21” value (p21) was 10 fold and the TS protein levels (TS) was “clearly decreases”.
